From patent publication US20110263827A1 (AbbVie / Abbott, published 2011)

B1: DVD336 (bispecific antibody)
VH: QVQLVESGGGLVKPGGSLRLSCAASGFTFSDYYMSWIRQAPGKGLEWVSYISSSGSTIYYADSVKGRFTISRDNAKNSLYLQMNSLRAEDTAVYYCARDEYNSGWYVLFDYWGQGTLVTVSSASTKGPQVQLQESGPGLVKPSQTLSLTCTVSGYSISSDFAWNWIRQPPGKGLEWMGYISYSGNTRYQPSLKSRITISRDTSKNQFFLKLNSVTAADTATYYCVTAGRGFPYWGQGTLVTVSS
VL: DIQMTQSPSSVSASVGDRVTITCRASQGISSWLAWYQQKPGKAPNLLIYEASSLQSGVPSRFGGSGSGTDFTLTISSLQPEDFATYYCQQANGFPWTFGQGTKVEIKRTVAAPDIQMTQSPSSMSVSVGDRVTITCHSSQDINSNIGWLQQKPGKSFKGLIYHGTNLDDGVPSRFSGSGSGTDYTLTISSLQPEDFATYYCVQYAQFPWTFGGGTKLEIKR
notes: DVD-Ig; HC S, LC S; variable parts only
B2: DVD782 (bispecific antibody)
VH: EVQLVESGGGLVQPGGSLRLSCAASGFTFTDNWISWVRQAPGKGLEWVGYISPNSGFTYYADSVKGRFTISADTSKNTAYLQMNSLRAEDTAVYYCARDNFGGYFDYWGQGTLVTVSSASTKGPSVFPLAPQVQLQESGPGLVKPSQTLSLTCTVSGYSISSDFAWNWIRQPPGKGLEWMGYISYSGNTRYQPSLKSRITISRDTSKNQFFLKLNSVTAADTATYYCVTAGRGFPYWGQGTLVTVSS
VL: DIQMTQSPSSLSASVGDRVTITCRASQDVSTAVAWYQQKPGKAPKLLIYSASFLYSGVPSRFSGSGSGTDFTLTISSLQPEDFATTYYCQQSYTGTVTFGQGTKVEIKRTVAAPSVFIFPPDIQMTQSPSSMSVSVGDRVTITCHSSQDINSNIGWLQQKPGKSFKGLIYHGTNLDDGVPSRFSGSGSGTDYTLTISSLQPEDFATYYCVQYAQFPWTFGGGTKLEIKR
notes: DVD-Ig; HC L, LC L; variable parts only
B3: DVD812 (bispecific antibody)
VH: B2 VH
VL: DIQMTQSPSSLSASVGDRVTITCRASQDVSTAVAWYQQKPGKAPKLLIYSASFLYSGVPSRFSGSGSGTDFTLTISSLQPEDFATTYYCQQSYTGTVTFGQGTKVEIKRTVAAPDIQMTQSPSSMSVSVGDRVTITCHSSQDINSNIGWLQQKPGKSFKGLIYHGTNLDDGVPSRFSGSGSGTDYTLTISSLQPEDFATYYCVQYAQFPWTFGGGTKLEIKR
notes: DVD-Ig; HC L, LC S; variable parts only
B4: DVD778 (bispecific antibody)
VH: QVQLVESGGGLVKPGGSLRLSCAASGFTFSDYYMSWIRQAPGKGLEWVSYISSSGSTIYYADSVKGRFTISRDNAKNSLYLQMNSLRAEDTAVYYCARDEYNSGWYVLFDYWGQGTLVTVSSASTKGPSVFPLAPQVQLQESGPGLVKPSQTLSLTCTVSGYSISSDFAWNWIRQPPGKGLEWMGYISYSGNTRYQPSLKSRITISRDTSKNQFFLKLNSVTAADTATYYCVTAGRGFPYWGQGTLVTVSS
VL: DIQMTQSPSSVSASVGDRVTITCRASQGISSWLAWYQQKPGKAPNLLIYEASSLQSGVPSRFGGSGSGTDFTLTISSLQPEDFATYYCQQANGFPWTFGQGTKVEIKRTVAAPSVFIFPPDIQMTQSPSSMSVSVGDRVTITCHSSQDINSNIGWLQQKPGKSFKGLIYHGTNLDDGVPSRFSGSGSGTDYTLTISSLQPEDFATYYCVQYAQFPWTFGGGTKLEIKR
notes: as for B2
B5: DVD838 (bispecific antibody)
VH: B1 VH
VL: B4 VL
notes: DVD-Ig; HC S, LC L; variable parts only
B6: DVD808 (bispecific antibody)
VH: B4 VH
VL: B1 VL
notes: as for B3
B7: DVD781 (bispecific antibody)
VH: QVQLQESGPGLVKPSQTLSLTCTVSGYSISSDFAWNWIRQPPGKGLEWMGYISYSGNTRYQPSLKSRITISRDTSKNQFFLKLNSVTAADTATYYCVTAGRGFPYWGQGTLVTVSSASTKGPSVFPLAPEVQLVESGGGLVQPGGSLRLSCAASGFTFTDNWISWVRQAPGKGLEWVGYISPNSGFTYYADSVKGRFTISADTSKNTAYLQMNSLRAEDTAVYYCARDNFGGYFDYWGQGTLVTVSS
VL: DIQMTQSPSSMSVSVGDRVTITCHSSQDINSNIGWLQQKPGKSFKGLIYHGTNLDDGVPSRFSGSGSGTDYTLTISSLQPEDFATYYCVQYAQFPWTFGGGTKLEIKRTVAAPSVFIFPPDIQMTQSPSSLSASVGDRVTITCRASQDVSTAVAWYQQKPGKAPKLLIYSASFLYSGVPSRFSGSGSGTDFTLTISSLQPEDFATTYYCQQSYTGTVTFGQGTKVEIKR
notes: as for B2
B8: DVD811 (bispecific antibody)
VH: B7 VH
VL: DIQMTQSPSSMSVSVGDRVTITCHSSQDINSNIGWLQQKPGKSFKGLIYHGTNLDDGVPSRFSGSGSGTDYTLTISSLQPEDFATYYCVQYAQFPWTFGGGTKLEIKRTVAAPDIQMTQSPSSLSASVGDRVTITCRASQDVSTAVAWYQQKPGKAPKLLIYSASFLYSGVPSRFSGSGSGTDFTLTISSLQPEDFATTYYCQQSYTGTVTFGQGTKVEIKR
notes: as for B3
B9: DVD841 (bispecific antibody)
VH: QVQLQESGPGLVKPSQTLSLTCTVSGYSISSDFAWNWIRQPPGKGLEWMGYISYSGNTRYQPSLKSRITISRDTSKNQFFLKLNSVTAADTATYYCVTAGRGFPYWGQGTLVTVSSASTKGPEVQLVESGGGLVQPGGSLRLSCAASGFTFTDNWISWVRQAPGKGLEWVGYISPNSGFTYYADSVKGRFTISADTSKNTAYLQMNSLRAEDTAVYYCARDNFGGYFDYWGQGTLVTVSS
VL: B7 VL
notes: as for B5
B10: DVD339 (bispecific antibody)
VH: B9 VH
VL: B8 VL
notes: as for B1

Each binder was assayed against T1, EGFR (UniProt P00533 25-645, limits assumed, biotinylated) (assay: direct bind ELISA, C-term VD;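 note: ELISA with antibody or DVD-Ig preparations applied to target antigen-coated plates for 1 h at room temperature, TMB colour development, absorbance read at 450 nm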).
T1 construct: ELISA antigen; construct not described

EC50 [nM] | Binder
332 | B1
55.2 | B2
77.3 | B3
50.3 | B4
57.7 | B5
96.4 | B6

The binders below were run against T2, DLL-4 (UniProt Q9NR61 27-524, limits assumed, biotinylated) (assay: direct bind ELISA, C-term VD;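 note: ELISA with antibody or DVD-Ig preparations applied to target antigen-coated plates for 1 h at room temperature, TMB colour development, absorbance read at 450 nm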).
T2 construct: ELISA antigen

EC50 [nM] | Binder
0.42 | B7
0.99 | B8
0.55 | B9
4.01 | B10

Each binder was assayed against T1, EGFR (assay: direct bind ELISA, N-term VD;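 note: antibody or DVD-Ig preparations bound to immobilized target antigen on ELISA plates, 1 h at room temperature, TMB detection read as absorbance at 450 nm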).

EC50 [nM] | Binder
4.19 | B7
3.45 | B8
4.06 | B9
5.1 | B10

Each binder was assayed against T3, HGF (UniProt P14210 32-728, limits assumed, biotinylated) (assay: direct bind ELISA, N-term VD;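 note: antibody or DVD-Ig preparations bound to immobilized target antigen on ELISA plates, 1 h at room temperature, TMB detection read as absorbance at 450 nm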).
T3 construct: ELISA antigen

EC50 [nM] | Binder
0.15 | B1
0.17 | B4
0.19 | B5
0.14 | B6

Each binder was assayed against T2, DLL-4 (assay: direct bind ELISA, N-term VD;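 note: antibody or DVD-Ig preparations bound to immobilized target antigen on ELISA plates, 1 h at room temperature, TMB detection read as absorbance at 450 nm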).

EC50 [nM] | Binder
0.37 | B2
0.39 | B3
